The values below come from patent US20250043002A1.

The target of assay [1] is human PD-L1 expressed with a C-terminal myc-myc-hexahistidine tag (hPD-L1.mmH) (human). Nature of the assay: SPR Biacore 25 C, antibody captured by anti-hFc, hPD-L1.mmH injected. On the technique in general: Surface plasmon resonance follows binding to a sensor surface in real time, without labels.
Assay [2] deals with human CD28 expressed with a C-terminal murine Fc tag (hCD28.mFc) (human). Nature of the assay: SPR Biacore 25 C, hCD28.mFc captured by anti-mFc, antibody injected.
Assay [3] concerns the target hPD-L1-mFc: hPD-L1 extracellular domain (amino acids F19-T239) expressed with the Fc portion of mouse IgG2a at the C-terminus (human; mouse) (UniProt Q9NZQ7). Kind of assay: blocking ELISA, 0.7 nM hPD-L1-mFc on plate-coated hPD1-hFc. Background: ELISA stands for enzyme-linked immunosorbent assay.

hPD-L1-mFc: hPD-L1 extracellular domain (amino acids F19-T239) expressed with the Fc portion of mouse IgG2a at the C-terminus (human; mouse), sequence (Q9NZQ7 19-239 limits assumed): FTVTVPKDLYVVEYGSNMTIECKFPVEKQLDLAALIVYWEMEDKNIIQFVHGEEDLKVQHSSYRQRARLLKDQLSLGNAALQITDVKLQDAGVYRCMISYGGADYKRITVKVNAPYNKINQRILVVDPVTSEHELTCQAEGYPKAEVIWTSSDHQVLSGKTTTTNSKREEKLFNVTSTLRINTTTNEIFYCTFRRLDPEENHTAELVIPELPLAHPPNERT
human PD-L1 expressed with a C-terminal myc-myc-hexahistidine tag (hPD-L1.mmH) (human), sequence (chain, as listed by the source limits assumed): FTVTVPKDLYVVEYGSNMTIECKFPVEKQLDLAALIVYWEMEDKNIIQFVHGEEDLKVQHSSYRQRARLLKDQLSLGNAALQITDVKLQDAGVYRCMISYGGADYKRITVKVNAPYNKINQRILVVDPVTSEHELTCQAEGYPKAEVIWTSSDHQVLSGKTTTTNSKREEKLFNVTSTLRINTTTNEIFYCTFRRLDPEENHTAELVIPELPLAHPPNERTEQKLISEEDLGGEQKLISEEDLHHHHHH

In turn, Isotype Control (antibody) yielded a 30 nM hPD-L1.mmH Bind (RU) in assay [1] of 0.5 RU. The substance also yielded a 90 nM mAb Bind (RU) in assay [2] of -4.3 RU. As to Isotype control 1 (antibody), in assay [3], the % Blocking at 100 nM mAb was found to be 1%. The same measure, in the same setting: for Isotype control 2 (antibody) the value was 1%. In assay [3], Isotype control 3 (antibody) came in with a % Blocking at 100 nM mAb of 4%.
